B1: C9orf25 (parent)
chain: LARKGSLKNGSMGSPVNQQPKKNN
B2: ZNF263 (parent)
chain: VPGTQVGQGGKLWDPSVQSCKEGL

Variants of: B1
Assay: protein stability index of a GFP-peptide fusion (GPS, HEK-293T) (PSI 1-6); higher = more stable
Conditions: c terminus: a fixed tail appended
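Also: lentivirally expressed fusions sorted by FACS into six bins by GFP to DsRed ratio, PSI derived from sequencing read proportions per bin multiplied by bin number.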

Protein stability index: each site, then its substitutions
N24: Y 3.78; T 4.83; V 3.85; W 3.88; S 4.7

Variants of: B2
Assay: as above
Conditions: c terminus: a fixed tail appended

Protein stability index of substitutions, site by site:
Q18: G 4.92; H 3.89; A 3.46; E 4.7; I 4.01; C 3.63; D 4.54; F 3.2
S16: Q 4.38; R 3.12; C 4.11; I 3.15; P 4.45; K 4.11; M 3.92; V 4.02; F 3.12; L 3.53; A 4.88; W 3.17; N 3.89; E 4.73; Y 3.68; D 4.93; G 4.21; T 4.58; H 4.27
V1: G 4.05; A 4.56; Y 1.85; D 4.85; M 4.69; S 4.19; K 4.36; Q 4.51; F 1.64; W 4.23; N 4.53; C 4.28; L 3.53; T 4.63; I 4.31; E 5.15; H 4.17; P 4.78; R 4.08
G7: R 3.68; P 3.78; I 3.67; A 4.02; C 4.29; V 3.87; Y 3.86; H 3.78; Q 3.69; S 4.41; K 3.81; L 3.77; M 3.91; D 4.24; W 4.06; E 4.41; T 3.33; N 4.76; F 3.36
Q8: D 4.71; F 4.17; K 4.11; G 4.28; M 3.97; E 3.48; R 4.34; H 4.12; I 4.15; P 4.07; A 4.41; L 3.79; V 4.04; Y 3.21; T 3.56; S 3.71; N 4.24; C 3.07; W 3.67
P15: D 4.29; F 2.86; I 3.3; R 4.16; H 4.01; G 4.35; M 3.54; W 3.17; L 4.8; S 4.03; E 4.94; N 4.13; K 4.23; Q 4.25; A 4.22; C 3.75; T 4.25; Y 3.16; V 3.63
V17: R 4.23; I 3.89; P 4.24; A 4.38; G 3.99; Y 4.1; S 4.92; Q 3.8; E 5.16; F 3.38; K 4.33; C 4.15; H 4.1; M 4.06; T 3.74; N 4.07; L 4.08; D 4.92
W13: T 4.79; G 5.5; L 4.8; A 4.8; K 4.61; V 4.88; R 4.71; N 5.12; D 4.4; E 5.29; C 4.76; S 4.54; Y 4.57; M 4.41; P 4.72; H 4.66; I 4.66; F 4.59; Q 4.79
K11: H 4.03; W 3.72; C 4.57; E 4.22; G 4.44; T 4.31; A 4; Q 4.54; R 4.46; I 4.26; Y 4.12; S 4.35; L 4.13; V 3.61; N 4.54; D 4.63; P 3.65; F 3.9; M 4.56
Q5: E 3.94; C 4.04; A 4; V 4.24; Y 3.25; D 4.16; P 4.33; M 3.79; W 4.15; F 3.3; H 4.63; L 4.17; R 4.2; I 4.16; K 4.21; S 4.13; G 4.27; N 4.23; T 4.2
G3: W 3.77; F 3.01; N 4.3; C 4.12; M 3.8; H 4.28; P 4.5; E 4.88; V 3.99; I 4.3; A 4.21; R 3.35; T 4.32; Q 4; S 3.48; K 3.77; L 4.1; D 4.96; Y 4.06
T4: I 3.42; K 3.96; E 3.4; N 4.44; Y 4.08; L 4.38; C 4; R 3.92; M 3.92; F 4.15; V 4.57; W 3.55; Q 4.23; P 4.29; D 4.85; S 4.08; A 4.55; H 4.1; G 4.26
D14: G 4.1; H 4.08; M 3.36; I 3.66; T 3.79; P 3.44; V 3.87; F 3.07; W 3.19; E 3.78; Q 4.09; N 3.72; Y 3.11; K 3.51; R 3.05; S 3.99; A 4.14; C 3.35
G9: C 3.73; V 3.67; Q 4.22; P 3.25; L 4.19; S 4.23; K 4.25; R 3.67; H 4.34; Y 3.59; N 3.47; A 4.03; T 4.25; E 4.61; I 3.8; D 4.55; M 3.42; W 3.33; F 3.87
G10: M 4.28; W 2.45; L 3.62; E 4.01; N 4.19; C 3.24; S 4.48; H 4.02; D 4.54; K 4.5; V 3.71; Q 4.38; R 4.96; T 4.31; I 3.53; F 2.93; P 4.47; Y 3.55; A 4.33
L12: P 5.07; F 4.26; G 3.97; S 4.3; K 4.37; H 4.45; V 4.42; E 3.97; I 3.65; D 4.89; A 3.4; M 4.07; W 4.01; R 4.36; C 3.94; N 4.42; T 4.34; Y 3.79; Q 4.72
P2: S 3.55; G 4.28; Y 2.83; I 3.19; A 4.17; Q 3.87; H 3.75; N 4.18; D 4.12; W 3.12; V 4.01; F 3.99; E 4.25; M 4.26; R 4.24; K 3.89; T 3.86; C 3.61; L 3.89
V6: G 4.83; N 4.47; H 3.51; C 3.49; E 4.29; R 4.55; S 4.67; K 4.69; I 4.28; L 4.03; Y 3.82; Q 4.73; M 4.29; W 3.36; F 4.65; D 4.3; P 4.26; A 3.97; T 4.7
